Results from IntAct's records for PubMed 18423203.

B1: Peripheral plasma membrane protein CASK (Homo sapiens), O14936 (parent)
chain: MADDDVLFEDVYELCEVIGKGPFSVVRRCINRETGQQFAVKIVDVAKFTSSPGLSTEDLKREASICHMLKHPHIVELLETYSSDGMLYMVFEFMDGADLCFEIVKRADAGFVYSEAVASHYMRQILEALRYCHDNNIIHRDVKPHCVLLASKENSAPVKLGGFGVAIQLGESGLVAGGRVGTPHFMAPEVVKREPYGKPVDVWGCGVILFILLSGCLPFYGTKERLFEGIIKGKYKMNPRQWSHISESAKDLVRRMLMLDPAERITVYEALNHPWLKERDRYAYKIHLPETVEQLRKFNARRKLKGAVLAAVSSHKFNSFYGDPPEELPDFSEDPTSSGLLAAERAVSQVLDSLEEIHALTDCSEKDLDFLHSVFQDQHLHTLLDLYDKINTKSSPQIRNPPSDAVQRAKEVLEEISCYPENNDAKELKRILTQPHFMALLQTHDVVAHEVYSDEALRVTPPPTSPYLNGDSPESANGDMDMENVTRVRLVQFQKNTDEPMGITLKMNELNHCIVARIMHGGMIHRQGTLHVGDEIREINGISVANQTVEQLQKMLREMRGSITFKIVPSYRTQSSSCERDSPSTSRQSPANGHSSTNNSVSDLPSTTQPKGRQIYVRAQFEYDPAKDDLIPCKEAGIRFRVGDIIQIISKDDHNWWQGKLENSKNGTAGLIPSPELQEWRVACIAMEKTKQEQQASCTWFGKKKKQYKDKYLAKHNAVFDQLDLVTYEEVVKLPAFKRKTLVLLGAHGVGRRHIKNTLITKHPDRFAYPIPHTTRPPKKDEENGKNYYFVSHDQMMQDISNNEYLEYGSHEDAMYGTKLETIRKIHEQGLIAILDVEPQALKVLRTAEFAPFVVFIAAPTITPGLNEDESLQRLQKESDILQRTYAHYFDLTIINNEIDETIRHLEEAVELVCTAPQWVPVSWVY

Variants of: B1
Conditions: with nrx1b_rat Nrxn1, Q63373
Chain of nrx1b_rat Nrxn1, Q63373 (Q63373 whole entry): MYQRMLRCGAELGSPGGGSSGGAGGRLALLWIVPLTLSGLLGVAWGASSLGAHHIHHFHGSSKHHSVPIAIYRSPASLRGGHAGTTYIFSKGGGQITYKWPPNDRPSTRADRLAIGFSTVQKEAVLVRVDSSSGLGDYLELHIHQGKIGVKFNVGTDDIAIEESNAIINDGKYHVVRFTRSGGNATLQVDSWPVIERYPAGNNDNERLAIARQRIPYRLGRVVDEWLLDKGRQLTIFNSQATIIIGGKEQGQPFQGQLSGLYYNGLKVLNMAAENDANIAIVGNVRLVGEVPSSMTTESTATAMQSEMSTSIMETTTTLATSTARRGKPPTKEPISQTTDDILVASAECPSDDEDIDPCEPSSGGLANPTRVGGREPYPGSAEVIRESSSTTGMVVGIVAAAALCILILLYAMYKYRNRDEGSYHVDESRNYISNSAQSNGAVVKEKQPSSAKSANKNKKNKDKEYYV

Variant | effect of a mutation on the interaction
S24D;V26L | decreasing interaction
